One may read the koff as a measure of how fast the partners let go of each other. The term Kd denotes a measure of binding affinity in units of concentration. The low end stands for tighter binding, the high end for weaker binding.

Here are results for 1 molecule from patent US20220315628A1.

The target of assay [1] is Y1G2 peptide (XGVECK-biotin with X = Tyr). The assay is described as follows: SPR; KD for the Tyr peptide divided by KD for the Trp peptide.
Assay [2] addresses F1G2 peptide (XGVECK-biotin with X = Phe). The assay is described as follows: SPR; KD for the Phe peptide divided by KD for the Trp peptide.
In assay [3] the target is W1G2 peptide (XGVECK-biotin with X = Trp). As to the kind of experiment: SPR; KD for the Trp peptide divided by KD for the Tyr peptide. (SPR reads the build-up and loss of mass on a sensor chip optically.)
The target in assay [4] is F1G2 peptide (XGVECK-biotin with X = Phe). As to the kind of experiment: SPR; KD for the Phe peptide divided by KD for the Tyr peptide.
For assay [5], the target named is Y1G2 peptide (XGVECK-biotin with X = Tyr). As to the kind of experiment: SPR; KD for the Tyr peptide divided by KD for the Tyr peptide.
The target of assay [6] is W1G2 peptide (XGVECK-biotin with X = Trp). The assay is described as follows: SPR; KD for the Trp peptide divided by KD for the Phe peptide.
Assay [7] has the same target. As to the kind of experiment: SPR; KD for the Trp peptide divided by KD for the Trp peptide.
Assay [8] deals with Y1G2 peptide (XGVECK-biotin with X = Tyr). As to the kind of experiment: SPR dissociation curves; biotinylated peptide on streptavidin chip.
The target of assay [9] is F1G2 peptide (XGVECK-biotin with X = Phe). The description is as above.
The target in assay [10] is W1G2 peptide (XGVECK-biotin with X = Trp). The assay is described as above.
For assay [11], the target named is Y1G2 peptide (XGVECK-biotin with X = Tyr). The assay is described as follows: SPR; KD for the Tyr peptide divided by KD for the Phe peptide.
The target in assay [12] is F1G2 peptide (XGVECK-biotin with X = Phe). As to the kind of experiment: SPR; KD for the Phe peptide divided by KD for the Phe peptide.
The target of assay [13] is Y1G2 peptide (XGVECK-biotin with X = Tyr). The assay is described as follows: SPR, steady state; biotinylated peptide on streptavidin chip, protein in solution.
The target of assay [14] is F1G2 peptide (XGVECK-biotin with X = Phe). Described as above.
The target in assay [15] is W1G2 peptide (XGVECK-biotin with X = Trp). Described as above.

B1: A. tumefaciens ClpS2 [Pro34 Arg35 Glu36], wild-type, expressed in and purified from E. coli (protein)
chain: MGHHHHHHENLYFQGSDSPVDLKPKPKVKPKLERPKLYKVMLLNDDYTPREFVTVVLKAVFRMSEDTGRRVMMTAHRFGSAVVVVCERDIAETKAKEATDLGKEAGFPLMFTTEPEE
Regarding B1, the Selectivity for Tyr, Tyr/Trp in assay [1] was 3.43. The Selectivity for Phe, Phe/Trp in assay [2] stood at 0.71. For the same molecule, in [3], the Selectivity for Trp, Trp/Tyr was found to be 0.29. This molecule gave a Selectivity for Phe, Phe/Tyr in assay [4] of 0.21. This molecule also displayed a Selectivity for Tyr, Tyr/Tyr in [5] of 1. Also, in [6], the Selectivity for Trp, Trp/Phe turned out to be 1.42. Further, in assay [7], the Selectivity for Trp, Trp/Trp is 1. The koff in assay [8] amounted to 1.16 s⁻¹; in [9], 0.93 s⁻¹; in assay [10], 1.32 s⁻¹. This molecule registered a Selectivity for Tyr, Tyr/Phe in assay [11] of 4.86. The molecule further yielded a Selectivity for Phe, Phe/Phe in assay [12] of 1. Also, the Kd in [13] was found to be 63 µM; in assay [14] it was 13 µM; in [15], 18.4 µM.
